Test [1] has as its target human collagen type I (human) (UniProt P02452). Briefly: adherence of cells to collagen-coated plates, 30 minutes at 37° C.; not inhibited by anti-β1 integrin blocking antibody.
Test [2] concerns the target DDR1b (discoidin domain receptor 1, isoform b), full-length human, overexpressed in THP-1 cells (human) (UniProt Q08345). Briefly: cell-based or functional assay.

DDR1b (discoidin domain receptor 1, isoform b), full-length human, overexpressed in THP-1 cells (human), sequence (Q08345 19-913, form in doubt): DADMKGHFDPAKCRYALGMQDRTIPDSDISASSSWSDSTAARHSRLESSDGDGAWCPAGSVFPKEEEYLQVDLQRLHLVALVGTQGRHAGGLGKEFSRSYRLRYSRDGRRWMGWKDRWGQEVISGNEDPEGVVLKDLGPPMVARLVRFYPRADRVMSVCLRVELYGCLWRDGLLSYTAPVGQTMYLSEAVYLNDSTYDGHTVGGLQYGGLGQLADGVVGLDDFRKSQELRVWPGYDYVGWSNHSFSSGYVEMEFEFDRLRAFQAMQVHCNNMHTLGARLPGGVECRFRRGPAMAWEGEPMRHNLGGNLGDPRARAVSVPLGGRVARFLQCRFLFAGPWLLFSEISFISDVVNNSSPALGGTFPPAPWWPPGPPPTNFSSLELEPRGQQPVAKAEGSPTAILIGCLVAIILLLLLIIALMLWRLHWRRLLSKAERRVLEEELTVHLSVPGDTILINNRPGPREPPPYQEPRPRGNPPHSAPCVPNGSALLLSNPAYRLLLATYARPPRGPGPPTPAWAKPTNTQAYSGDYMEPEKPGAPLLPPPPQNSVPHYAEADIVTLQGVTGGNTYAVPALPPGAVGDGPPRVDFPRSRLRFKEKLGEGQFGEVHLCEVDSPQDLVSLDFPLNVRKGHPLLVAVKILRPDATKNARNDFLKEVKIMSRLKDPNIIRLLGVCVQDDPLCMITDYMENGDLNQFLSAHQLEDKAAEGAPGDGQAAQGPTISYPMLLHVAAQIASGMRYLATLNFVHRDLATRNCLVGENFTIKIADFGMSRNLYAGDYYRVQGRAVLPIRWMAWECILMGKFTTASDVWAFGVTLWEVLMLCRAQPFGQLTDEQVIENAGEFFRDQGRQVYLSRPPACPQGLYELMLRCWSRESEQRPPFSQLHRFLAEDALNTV
human collagen type I (human), sequence (P02452 162-1218 limits assumed, chain 1 of 2): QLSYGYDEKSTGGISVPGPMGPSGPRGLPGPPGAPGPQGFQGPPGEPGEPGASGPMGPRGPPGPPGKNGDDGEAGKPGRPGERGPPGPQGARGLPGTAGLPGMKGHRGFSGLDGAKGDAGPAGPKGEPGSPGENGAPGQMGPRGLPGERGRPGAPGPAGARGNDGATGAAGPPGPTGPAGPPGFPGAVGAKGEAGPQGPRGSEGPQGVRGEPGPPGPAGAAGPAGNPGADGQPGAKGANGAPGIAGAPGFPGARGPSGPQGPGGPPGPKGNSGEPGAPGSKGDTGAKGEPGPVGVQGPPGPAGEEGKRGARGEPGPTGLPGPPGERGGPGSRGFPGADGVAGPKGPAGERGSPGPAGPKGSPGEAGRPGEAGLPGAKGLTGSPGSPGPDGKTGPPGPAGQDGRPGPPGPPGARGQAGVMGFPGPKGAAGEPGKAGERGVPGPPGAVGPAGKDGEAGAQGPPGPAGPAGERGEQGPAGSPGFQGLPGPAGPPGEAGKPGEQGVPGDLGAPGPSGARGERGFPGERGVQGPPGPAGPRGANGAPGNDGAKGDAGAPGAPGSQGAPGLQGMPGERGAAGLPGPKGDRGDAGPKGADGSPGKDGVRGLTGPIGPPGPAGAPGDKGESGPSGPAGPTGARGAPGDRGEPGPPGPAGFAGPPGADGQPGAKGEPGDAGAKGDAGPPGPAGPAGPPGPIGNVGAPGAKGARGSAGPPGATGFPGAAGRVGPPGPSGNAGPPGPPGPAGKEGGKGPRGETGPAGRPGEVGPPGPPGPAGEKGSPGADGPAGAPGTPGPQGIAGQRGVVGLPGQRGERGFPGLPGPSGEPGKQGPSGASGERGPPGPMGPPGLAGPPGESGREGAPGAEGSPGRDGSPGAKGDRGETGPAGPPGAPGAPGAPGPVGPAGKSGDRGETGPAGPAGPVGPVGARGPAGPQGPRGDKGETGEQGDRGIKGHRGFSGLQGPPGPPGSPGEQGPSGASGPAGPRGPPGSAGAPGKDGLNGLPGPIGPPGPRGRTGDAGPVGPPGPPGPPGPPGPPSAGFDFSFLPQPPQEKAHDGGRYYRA
human collagen type I (human), sequence (P08123 80-1119 limits assumed, chain 2 of 2, further chain): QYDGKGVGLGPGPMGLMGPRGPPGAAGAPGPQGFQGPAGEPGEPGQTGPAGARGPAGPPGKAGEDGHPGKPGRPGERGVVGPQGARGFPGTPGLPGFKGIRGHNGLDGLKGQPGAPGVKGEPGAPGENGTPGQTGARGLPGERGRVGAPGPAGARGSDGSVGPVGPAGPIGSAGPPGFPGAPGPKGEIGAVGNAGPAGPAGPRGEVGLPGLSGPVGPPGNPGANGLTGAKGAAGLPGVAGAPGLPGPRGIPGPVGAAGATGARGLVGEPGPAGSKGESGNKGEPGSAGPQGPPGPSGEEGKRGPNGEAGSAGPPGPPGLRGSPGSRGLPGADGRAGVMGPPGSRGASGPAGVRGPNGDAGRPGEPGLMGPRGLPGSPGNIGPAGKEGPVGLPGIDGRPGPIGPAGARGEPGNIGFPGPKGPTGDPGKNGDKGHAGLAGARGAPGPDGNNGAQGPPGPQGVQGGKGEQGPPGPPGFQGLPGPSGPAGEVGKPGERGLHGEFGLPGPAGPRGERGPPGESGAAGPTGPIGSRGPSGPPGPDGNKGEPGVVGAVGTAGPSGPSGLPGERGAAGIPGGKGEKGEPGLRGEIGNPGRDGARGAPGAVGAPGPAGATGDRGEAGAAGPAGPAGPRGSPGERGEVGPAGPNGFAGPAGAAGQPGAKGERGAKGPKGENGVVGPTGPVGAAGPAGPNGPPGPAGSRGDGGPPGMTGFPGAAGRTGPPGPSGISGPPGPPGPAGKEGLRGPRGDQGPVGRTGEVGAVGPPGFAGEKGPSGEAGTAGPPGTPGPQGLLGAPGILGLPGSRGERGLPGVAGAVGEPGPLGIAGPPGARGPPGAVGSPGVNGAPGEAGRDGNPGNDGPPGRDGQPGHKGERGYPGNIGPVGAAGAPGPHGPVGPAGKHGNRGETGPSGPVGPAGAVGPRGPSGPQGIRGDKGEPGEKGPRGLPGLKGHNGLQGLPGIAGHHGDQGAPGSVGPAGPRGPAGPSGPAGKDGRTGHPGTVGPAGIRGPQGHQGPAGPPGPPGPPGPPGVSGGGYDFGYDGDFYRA
DDR1b (discoidin domain receptor 1, isoform b), full-length human, overexpressed in THP-1 cells, sequence (Q08345 19-913): as the sequence (Q08345 19-913, form in doubt) above

In test [1], “DDR1a (discoidin domain receptor 1, isoform a), full-length human, overexpressed in THP-1 cells (from UniProt Q08345 19-913)” returned a percent of total cells adherent (% of total cells) of 62.
Still for that read-out and setting: as for “DDR1b (discoidin domain receptor 1, isoform b), full-length human, overexpressed in THP-1 cells (from UniProt Q08345 19-913)”, the figure is 62.
Take “bovine collagen type I (from UniProt P02453 162-1217; P02465 80-1117)”: the decrease in cell proliferation of PMA-treated THP-1 cells on collagen-coated plates in test [2] worked out at 50%.
Turning to “bovine collagen type I (from UniProt P02453 162-1217; P02465 80-1117) (ligand)”, in test [2], the CD11c-positive cells at 24 hours on collagen-coated plates was found to be 53%; the CD14-positive cells at 24 hours on collagen-coated plates came to 35%; the CD40-positive cells at 24 hours on collagen-coated plates is 19%; the HLA-DR-positive cells, 12 hours on collagen-coated plates stood at 10%. For the same substance, in test [2], the HLA-DR-positive cells, 24 hour incubation on collagen-coated plates is 25%; the HLA-DR-positive cells, 48 hour incubation on collagen-coated plates was determined as 70%; the MCP-1 release into culture supernatant (ELISA) was 7 fold.

These data come from patent US20050118170A1.
